The experiment deals with rhodamine-labeled rabbit skeletal muscle actin (rabbit) (UniProt P68135).

espin (ectoplasmic specialization protein), recombinant protein, sequence (B1AK53 whole entry): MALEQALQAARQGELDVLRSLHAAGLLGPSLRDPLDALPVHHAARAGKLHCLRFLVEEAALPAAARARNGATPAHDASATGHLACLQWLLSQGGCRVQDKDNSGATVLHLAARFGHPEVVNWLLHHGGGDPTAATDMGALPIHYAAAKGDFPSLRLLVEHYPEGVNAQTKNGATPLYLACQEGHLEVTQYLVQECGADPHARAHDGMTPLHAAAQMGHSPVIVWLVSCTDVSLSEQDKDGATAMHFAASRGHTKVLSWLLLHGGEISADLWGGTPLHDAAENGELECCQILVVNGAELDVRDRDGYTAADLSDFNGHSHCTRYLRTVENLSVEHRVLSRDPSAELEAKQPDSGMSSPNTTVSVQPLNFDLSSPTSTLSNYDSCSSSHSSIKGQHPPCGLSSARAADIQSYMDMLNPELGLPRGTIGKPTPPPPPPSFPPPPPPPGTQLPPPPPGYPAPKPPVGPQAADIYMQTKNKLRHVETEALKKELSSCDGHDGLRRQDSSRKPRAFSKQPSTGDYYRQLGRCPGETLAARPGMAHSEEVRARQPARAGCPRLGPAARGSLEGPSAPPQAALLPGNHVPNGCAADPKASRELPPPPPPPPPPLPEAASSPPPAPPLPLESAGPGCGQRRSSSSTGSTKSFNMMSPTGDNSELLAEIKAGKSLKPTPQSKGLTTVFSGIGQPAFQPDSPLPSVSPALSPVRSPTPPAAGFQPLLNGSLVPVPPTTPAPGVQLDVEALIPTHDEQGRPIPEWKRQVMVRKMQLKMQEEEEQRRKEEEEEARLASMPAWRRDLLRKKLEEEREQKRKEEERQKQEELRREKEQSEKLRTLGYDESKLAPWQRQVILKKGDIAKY

In turn, “espin (ectoplasmic specialization protein), recombinant protein (from UniProt B1AK53 1-854) (natural protein)” returned a minimum concentration of purified espin at which bundling of pre-polymerized rhodamine-actin filaments (3 uM) was seen by confocal imaging (Fig. 4L) of 100 nM.

The values are drawn from publication PMC12117036.
